According to the supplement of paper PMC7877785:
± gives the uncertainty stated by the source.

Assay: self-splicing fitness, log relative to wild type (ln ratio); higher = more splicing; Tetrahymena group I intron in knt gene, E. coli kanamycin selection, DiMSum; sequences stand for … in CUCUCU…GGAGGGAAAAGUUAUCAGGCAUGCACCUGGUAGCUAGUCUUUAAACCAAUAGAUUGCAUCGGUUUAAAAGGCAAGACCGUCAAAUUGCGGGAAAGGGGUCAACAGCCGUUCAGUACCAAGUCUCAGGGGAAACUUUGAGAUGGCCUUGCAAAGGGUAUGGUAAUAAGCUGACGGACAUGGUCCUAACCACGCAGCCAAGUCCUAAGUCAACAGAUCUUCUGUUGAUAUGGAUGCAGUUCACAGACUAAAUGUCGGUCGGGGAAGAUGUAUUCUUCUCAUAAGAUAUAGUCGGACCUCUCCUUAAUGGGAGCUAGCGGAUGAAGUGAUGCAACACUGGAGCCGCUGGGAACUAAUUUGUAUGCGAAAGUAUAUUGAUUAGUUUUGGAGUACUCGUGGUCG
Procedure, shortened: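 The eight P1ex-region nucleotides of an intron in the knt kanamycin-resistance gene on pET-22b(+) were all randomised and the library put into E. coli BL21(DE3). Six replicate transformations were grown overnight at 37°C or 30°C on LB agar with or without 25 μg/mL kanamycin, together with 100 μg/mL carbenicillin, 50 μM IPTG and 0.2% rhamnose. Colonies were pooled and amplicon-sequenced on an Illumina HiSeq 2500. Fitness from DiMSum is the error-weighted combination of wild-type-normalised replicate fold changes, kanamycin over none.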

| Sequence | self-splicing fitness (ln) (30 °C) | self-splicing fitness (ln) (37 °C) |
| --- | --- | --- |
| CCUCAGCAAUAUUACGGAAG | -1.05 ± 0.11 | -0.549 ± 0.14 |
| CCUCAGCAAUAUUACGGAAU | -3.72 ± 0.3 | -2.69 ± 0.25 |
| CCUCAGCAAUAUUACGGCAU | -3.12 ± 0.13 | -2.42 ± 0.18 |
| CCUCAGCAAUAUUACGGCUA | -3.62 ± 0.4 | -1.72 ± 0.25 |
| CCUCAGCAAUAUUACGGCUC | -2.77 ± 0.16 | -2.46 ± 0.29 |
| CCUCAGCAAUAUUACGGGUA | -3.23 ± 0.18 | -1.9 ± 0.14 |
| CCUCAGCAAUAUUACGGUUU | -3.37 ± 0.13 | -2.73 ± 0.16 |
| CCUCAGCAAUAUUACGUAAU | -4.03 ± 0.21 | -2.74 ± 0.22 |
| CCUCAGCAAUAUUACGUCAA | -4.15 ± 0.31 | -3.11 ± 0.29 |
| CCUCAGCAAUAUUACGUGGG | -4.89 ± 0.25 | -3.15 ± 0.19 |
| CCUCAGCAAUAUUACGUUCU | -4.28 ± 0.34 | -3.23 ± 0.36 |
| CCUGAGCAAUAUUACGAACG | -2.81 ± 0.26 | -1.48 ± 0.27 |
| CCUGAGCAAUAUUACGACGC | -3.08 ± 0.47 | -0.889 ± 0.22 |
| CCUGAGCAAUAUUACGACUA | -2.81 ± 0.25 | -1.79 ± 0.24 |
| CCUGAGCAAUAUUACGCAGC | – | -1.38 ± 0.3 |
| CCUGAGCAAUAUUACGCGGU | -3.87 ± 0.21 | -1.54 ± 0.16 |
| CCUGAGCAAUAUUACGCUAG | -3.02 ± 0.19 | -1.27 ± 0.17 |
| CCUGAGCAAUAUUACGCUCU | -3.59 ± 0.43 | -2.26 ± 0.25 |
| CCUGAGCAAUAUUACGCUGU | -4.99 ± 0.46 | -2.85 ± 0.23 |
| CCUGAGCAAUAUUACGGACG | -2.49 ± 0.16 | -0.682 ± 0.12 |
| CCUGAGCAAUAUUACGGAUU | -2.74 ± 0.18 | -2.34 ± 0.16 |
| CCUGAGCAAUAUUACGGCCU | -2.68 ± 0.17 | -2.96 ± 0.3 |
| CCUGAGCAAUAUUACGGGGG | -3.15 ± 0.16 | -1.55 ± 0.22 |
| CCUGAGCAAUAUUACGUAGA | -3.23 ± 0.13 | -2.26 ± 0.14 |

| Sequence | self-splicing fitness (ln) (30 °C) | self-splicing fitness (ln) (37 °C) |
| --- | --- | --- |
| CCUGAGCAAUAUUACGUAUC | – | -2.46 ± 0.23 |
| CCUGAGCAAUAUUACGUGCA | -3.09 ± 0.21 | -1.53 ± 0.26 |
| CCUGAGCAAUAUUACGUGCG | -3.69 ± 0.22 | -1.04 ± 0.16 |
| CCUGAGCAAUAUUACGUUAG | -3.86 ± 0.17 | -2.29 ± 0.12 |
| CCUUAGCAAUAUUACGAAAG | -1.96 ± 0.11 | -1.45 ± 0.089 |
| CCUUAGCAAUAUUACGAGAG | -2.05 ± 0.11 | -1.42 ± 0.1 |
| CCUUAGCAAUAUUACGAGGG | -3.54 ± 0.24 | -1.39 ± 0.21 |
| CCUUAGCAAUAUUACGAGUA | -2.81 ± 0.29 | -2.42 ± 0.26 |
| CCUUAGCAAUAUUACGAUGG | -2.24 ± 0.13 | -2.26 ± 0.16 |
| CCUUAGCAAUAUUACGCACG | -2.02 ± 0.35 | – |
| CCUUAGCAAUAUUACGCAGA | -3.11 ± 0.36 | -2.72 ± 0.3 |
| CCUUAGCAAUAUUACGCGCC | -2.8 ± 0.4 | – |
| CCUUAGCAAUAUUACGGCAU | -3.41 ± 0.19 | -2.88 ± 0.32 |
| CCUUAGCAAUAUUACGUAAU | -3.24 ± 0.29 | -1.81 ± 0.16 |
| CCUUAGCAAUAUUACGUCAG | -3.79 ± 0.35 | -2.74 ± 0.31 |
| CCUUAGCAAUAUUACGUCUG | -2.99 ± 0.1 | -1.48 ± 0.096 |
| CCUUAGCAAUAUUACGUGAG | -1.35 ± 0.068 | 0.0439 ± 0.088 |
| CCUUAGCAAUAUUACGUGAU | -3.66 ± 0.2 | -2 ± 0.24 |
| CCUUAGCAAUAUUACGUUAC | -3.65 ± 0.35 | -2.91 ± 0.29 |
| CGAAAGCAAUAUUACGAUAA | -2.44 ± 0.17 | -0.695 ± 0.12 |
| CGAAAGCAAUAUUACGAUGC | -2.67 ± 0.39 | -1.35 ± 0.27 |
| CGAAAGCAAUAUUACGAUUU | -2.12 ± 0.09 | -0.815 ± 0.099 |
| CGAAAGCAAUAUUACGCCCG | -1.9 ± 0.18 | -0.623 ± 0.21 |
| CGAAAGCAAUAUUACGCCGA | -1.99 ± 0.24 | -0.323 ± 0.15 |
